Where two headings read alike, the source gives them in different places.
How the values were obtained:
[1] = biological target: T1, Fc-hROR1 (Homo sapiens, UniProt Q01973); test: SPR
[2] = biological target: T2, hROR1-ECD (Homo sapiens, UniProt Q01973); test: SPR
[3] = biological target: Fc-mROR1 (Mus musculus, UniProt Q9Z139); test: ELISA
[4] = biological target: Fc-hROR1Fz+Kr (Homo sapiens, UniProt Q01973); test: ELISA
[5] = biological target: Fc-hROR1Fz (Homo sapiens, UniProt Q01973); test: ELISA
[6] = biological target: Fc-hROR1Kr (Homo sapiens, UniProt Q01973); test: ELISA
[7] = biological target: T1, Fc-hROR1; test: SPR; remark: listed apart in the source
[8] = biological target: T2, hROR1-ECD; test: SPR; remark: listed apart in the source

T1 sequence (Q01973 30-406): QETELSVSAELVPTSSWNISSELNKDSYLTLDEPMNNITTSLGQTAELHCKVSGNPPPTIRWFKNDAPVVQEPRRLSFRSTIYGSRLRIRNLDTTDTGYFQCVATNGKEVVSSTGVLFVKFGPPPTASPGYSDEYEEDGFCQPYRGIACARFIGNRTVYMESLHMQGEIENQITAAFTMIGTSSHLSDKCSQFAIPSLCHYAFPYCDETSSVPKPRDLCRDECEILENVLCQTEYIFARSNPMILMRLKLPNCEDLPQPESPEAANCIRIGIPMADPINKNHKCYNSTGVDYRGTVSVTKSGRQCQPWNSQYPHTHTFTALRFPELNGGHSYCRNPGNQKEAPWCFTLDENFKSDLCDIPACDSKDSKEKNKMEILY
T2 sequence (Q01973 30-406): as above
Chain of Fc-mROR1 (Q9Z139 30-406): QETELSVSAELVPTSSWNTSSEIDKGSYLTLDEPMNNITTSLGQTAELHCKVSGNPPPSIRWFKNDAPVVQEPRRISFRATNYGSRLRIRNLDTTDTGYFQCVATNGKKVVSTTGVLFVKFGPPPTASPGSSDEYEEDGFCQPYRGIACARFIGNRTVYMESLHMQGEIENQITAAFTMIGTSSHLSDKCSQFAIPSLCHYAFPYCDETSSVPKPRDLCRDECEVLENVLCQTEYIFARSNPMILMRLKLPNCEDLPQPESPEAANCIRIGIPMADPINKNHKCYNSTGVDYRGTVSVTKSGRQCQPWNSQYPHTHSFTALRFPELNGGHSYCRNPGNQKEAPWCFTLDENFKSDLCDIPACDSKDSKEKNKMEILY
Chain of Fc-hROR1Fz (Q01973 165-299): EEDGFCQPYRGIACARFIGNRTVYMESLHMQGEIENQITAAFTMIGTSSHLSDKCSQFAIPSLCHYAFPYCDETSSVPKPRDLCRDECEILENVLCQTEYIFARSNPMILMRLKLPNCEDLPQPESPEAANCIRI

B1: mouse anti-human ROR1 monoclonal antibody 2A2-IgG (antibody, V domains shown)
VH: QVQLQQSGAELVRPGASVTLSCKASGYTFSDYEMHWVIQTPVHGLEWIGAIDPETGGTAYNQKFKGKAILTADKSSSTAYMELRSLTSEDSAVYYCTGYYDYDSFTYWGQGTLVTVSA
VL: DIVMTQSQKIMSTTVGDRVSITCKASQNVDAAVAWYQQKPGQSPKLLIYSASNRYTGVPDRFTGSGSGTDFTLTISNMQSEDLADYFCQQYDIYPYTFGGGTKLEIK
- Kd [1]: 0.42 nM
- koff [1]: 0.00034 s⁻¹
- kon [1]: 810000 M⁻¹ s⁻¹
- Kd [2]: 0.12 nM
- koff [2]: 0.00018 s⁻¹
- kon [2]: 1.52e+06 M⁻¹ s⁻¹
- binding result [3]: binds
- binding result [4]: no binding
- binding result [5]: no binding
- binding result [6]: no binding
- Kd [7]: 0.79 nM
- koff [7]: 0.00018 s⁻¹
- kon [7]: 230000 M⁻¹ s⁻¹
- Kd [8]: 32.6 nM
- koff [8]: 0.00777 s⁻¹
- kon [8]: 240000 M⁻¹ s⁻¹
